Measurements published in publication PMC6193540.

Columns and labels:
[1] = biological target: p53, endogenous in 92-VU-040T HNSCC cells (human (endogenous in 92-VU-040T)) (UniProt P04637); assay: co-IP
[2] = biological target: p53, endogenous in 93-VU-147T HNSCC cells (human (endogenous in 93-VU-147T)) (UniProt P04637); assay: co-IP

fold change of the binding to p53 in PTTG-depleted cells against Scr shRNA cells [1]: 4 fold
fold change of the binding to p53 in PTTG-depleted cells against Scr shRNA cells [2]: 3.6 fold
B1: PBF, HA-tagged (natural protein)
chain: QEPPGAACSQNTNKTCEECLKNVSCLWCNTNKACLDYPVTSVLPPASLCKLSSARWGVCWVNFEALIITMSVVGGTLLLGIAICCCCCCRRKRSRKPDRSEEKAMREREERRIRQEERRAEMKTRHDEIRKKYGLFKEENPYARFENN
